Patent publication US20030049211A1, “Remedies and preventives for dental diseases” (priority 2000, published 2003)
Where a chain is given by its changes, count along the chain named.

How the values were obtained:
PTHrP (1-34) [1] = target: T1, PTHrP (1-34) (Homo sapiens, UniProt P12272); assay: Hybridoma screening by solid phase RIA; type: binding; set-up: mixed with an equivalent amount of 4 ng/ml of PTHrP (1-34); host or cells: peptide added from outside to rat ROS17/2.8-5 cells; conditions: hybridoma culture supernatant
Method: The screening of hybridomas was performed by determining the presence of PTHrP-recognition antibodies in the culture supernatant of the wells in which cell growth had been observed in HAT medium, by solid phase RIA method. The hybridomas were collected from the wells in which the binding ability to the PTHrP-recognition antibodies had been confirmed. The hybridomas thus obtained was suspended into RPMI-1640 medium containing 15% FCS supplemented with OPI-supplement (Sigma), followed by unification of the hybridomas by limiting dilution method.

PTHrP (1-34) [2] = target: T1, PTHrP (1-34); assay: ELISA, determination of antigen-binding ability; set-up: coating buffer supplemented with 1 μg/ml of human PTHrP (1-34) (Peptide Research Institute); purchased Peptide Research Institute; conditions: antibodies expressed in COS-7 cells; H-chain humanized version a
Method: An ELISA plate for the determination of antigen-binding ability was prepared as follows. Each well of a 96-well ELISA plate was coated with 100 μl of a coating buffer supplemented with 1 μg/ml of human PTHrP (1-34) (Peptide Research Institute), and then blocked with 200 μl of a dilution buffer. Each well was added with each of the serial dilutions of the COS-7 cell culture supernatant in which each of the chimeric antibodies had been expressed, or added with each of the serial dilutions of each of the chimeric antibodies per se in a purified form. After the plate was incubated at room temperature and washed with PBS-Tween 20, each well of the plate was added with 100 μl of a solution of alkaline phosphatase-conjugated goat anti-human IgG antibodies (TAGO). After the plate was incubated at room temperature and washed with PBS-Tween 20, each well of the plate was added with 1 mg/ml of a substrate solution (“Sigma 104”, p-nitrophenylphosphoric acid, SIGMA). The solution was measured on its absorbance at 405 nm using Microplate Reader (Bio Rad).
An ELISA plate for determining antigen-binding ability was prepared as follows. Each well of a 96-well ELISA plate (Maxisorp, NUNC) was coated with 100 μl of a coating buffer containing 1 μg/ml of human PTHrP (1-34) and then blocked with 200 μl of a dilution buffer. Subsequently, each well was added with each of the serial dilutions of the COS-7 cell culture supernatant in which each of the hybrid antibodies and humanized antibodies was expressed, or added with each of the serial dilutions of each of the hybrid antibodies and humanized antibodies in a purified form. The plate was incubated at room temperature and washed with PBS-Tween 20. Subsequently, each well was added with 100 μl of alkaline phosphatase-conjugated goat anti-human IgG antibody (TAGO). The plate was incubated at room temperature and washed with PBS-Tween 20. Subsequently, each well was added with 1 mg/ml of a substrate solution (“Sigma 104”, p-nitrophenylphosphoric acid, SIGMA). The solution was measured on its absorbance at 405 nm using Microplate Reader (Bio Rad).

B1: #23-57-137-1: mouse monoclonal antibody against human PTHrP (1-34) from hybridoma #23-57-137-1 (FERM BP-5631) (antibody, V domains shown)
VH: EVQLVESGGDLVKPGGSLKLSCAASGFTFSSYGMSWIRQTPDKRLEWVATISSGGSYTYYPDSVKGRFTISRDNAKNTLYLQMSSLKSEDTAMFYCARQTTMTYFAYWGQGTLVTVSA
VL: QLVLTQSSSASFSLGASAKLTCTLSSQHSTYTIEWYQQQPLKPPKYVMDLKQDGSHSTGDGIPDRFSGSSSGADRYLSISNIQPEDEAMYICGVGDTIKEQFVYVFGGGTKVTVLGQP
binding ability to PTHrP (1-34) (PTHrP (1-34) [1]): high binding ability

B2: antibody having both a humanized H-chain version “a” and a chimeric L-chain: antibody with humanized #23-57-137-1 H-chain version a and chimeric L-chain (antibody, V domains shown)
VH: QVQLVESGGGVVQPGRSLRLSCAASGFTFSSYGMSWVRQAPGKGLEWVATISSGGSYTYYPDSVKGRFTISRDNSKNTLYLQMNSLRAEDTAVYYCARQTTMTYFAYWGQGTLVTVSS
VL: B1 VL
antigen-binding (PTHrP-binding) activity compared with the chimeric #23-57-137-1 antibody (PTHrP (1-34) [2]): the same level of PTHrP-binding activity as that of a chimeric antibody

B3: m/hMBC1La λ: hybrid antibody: humanized H-chain with mouse FR1,2/human FR3,4 hybrid L-chain (from version a) (antibody, V domains shown)
VH: B2 VH
VL: QLVLTQSSSASFSLGASAKLTCTLSSQHSTYTIEWYQQQPLKPPKYVMDLKQDGSHSTGDGIPDRFSGSSSGAERYLTISSLQSEDEADYYCGVGDTIKEQFVYVFGGGTKLTVL
antigen-binding (PTHrP-binding) activity compared with the chimeric #23-57-137-1 antibody (PTHrP (1-34) [2]): the same level of antigen-binding activity as that of the chimeric #23-57-137-1 antibody

B4: m/hMBC1Ldλ: hybrid antibody: humanized H-chain with mouse FR1,2/human FR3,4 hybrid L-chain (from version d, 87 isoleucine) (antibody, V domains shown)
VH: B2 VH
VL: B3 VL with Y91I
antigen-binding (PTHrP-binding) activity compared with the chimeric #23-57-137-1 antibody (PTHrP (1-34) [2]): the same level of antigen-binding activity as that of the chimeric #23-57-137-1 antibody

B5: hmmMBC1L(λ): hybrid antibody: humanized H-chain with human FR1/mouse FR2,3,4 hybrid L-chain (antibody, V domains shown)
VH: B2 VH
VL: QLVLTQSPSASASLGASVKLTCTLSSQHSTYTIEWYQQQPLKPPKYVMDLKQDGSHSTGDGIPDRFSGSSSGADRYLSISNIQPEDEAMYICGVGDTIKEQFVYVFGGGTKVTVL
antigen-binding (PTHrP-binding) activity compared with the chimeric #23-57-137-1 antibody (PTHrP (1-34) [2]): the same level of antigen-binding activity as that of the chimeric #23-57-137-1 antibody
